Test results as given in patent US5714144A, “Human tissue-type plasminogen activator variant” (Genentech, Inc., priority 1995, dated 1998).
“And” between values parts separate entries of the source, which are not always exact repeats. Identical values can stand only once. Like-named read-outs stand apart in the source and are kept apart here.

Key:
[1] = Pharmacokinetics of unlabeled rt-PA in rabbits, immunoreactive t-PA by sandwich ELISA, i.v. bolus; assay type: in vivo; conditions: for Microconstant K10: elimination from central compartment; for Microconstant K10 / Microconstant K12 / Microconstant K21: Table 3; for Microconstant K12 / Microconstant K21: equilibration with peripheral compartment
Experimental: (§1) The unlabeled human tissue-type plasminogen activator was used as a carrier for the trace amount of labeled human tissue-type plasminogen activator in order to achieve therapeutic levels and to avoid alterations in the pharmacokinetics that could arise from concentration dependence in the clearance pathways. Serial arterial blood samples were collected over a 26 minute period and placed immediately into tubes containing a lyophilized mixture of D-phe-pro-arg-[…] (PPACK) and EDTA at final concentrations of 1 μM and 4.8 mM, respectively. The tubes were placed on ice and plasma was separated. Trichloroacetic acid (TGA) precipitable (intact human tissue-type plasminogen activator) and total radioactivity were measured in each plasma sample.
(§2) The following exponential equation was used: Cp=Ae^-αt +Be^-βt, where Cp is the concentration of rt-PA in the plasma at any time, t and A and B are the y intercepts of the fast and slow clearance phases which have slopes of α and β, respectively. The t1/2 for the α and β phases were calculated as the ratio: 1n2/slope. The results from the curve stripping procedure were used as initial approximations to fit the data to a biexponential model using PC NONLIN. One data set (FIG. 4) could not be fit using PC NONLIN so the data from the curve stripping procedure were used. Co, the plasma concentration at zero time, was the sum of A and B. Vo was calculated as dose divided by Co. Area under the curve (AUC) was determined by formula AUC=A/α+B/β. […] AUC was then used to calculate the clearance using the formula, Clearance=Dose/AUC. The relative contributions of the alpha and beta phases were calculated from the following formulas: [formula]
The data for Table 2 were fit to a model with direct elimination from the central compartment (K10) and equilibration with a peripheral compartment (K12 and K21).
(§3) Two types of data were generated from in vivo clearance studies in rabbits. One is from the immunoreactive human tissue-type plasminogen activator which should be a measure of the clearance of the unlabeled material. […] The curves of plasma concentration versus time from the immunoreactivity and the TGA precipitable counts were fit to the appropriate multiexponential models and the derived pharmacokinetic parameters were compared.

[2] = Pharmacokinetics of 125I labeled rt-PA in rabbits, trichloroacetic acid (TCA) precipitable radioactivity, i.v. bolus; assay type: in vivo
From the text: Arginine, 0.2M, and citrate, 0.1M, (pH 6.0) and Tween 80, 0.01 percent, was the buffer used at all times. All samples were dialyzed into this buffer prior to iodination. pH was adjusted to 8.2 with Tris base prior to iodination. The iodination mixture was passed across a PD-10 column (Pharmacia) equilibrated with pH 6.0 buffer, the radioactive fractions from the void volume were pooled, SDS-PAGE was run and the dried gel was autoradiographed.
as §1, §2, §3
The remaining modified forms of rt-PA were not available in quantities which would allow the pharmacokinetics to be characterized using the above techniques. Therefore the pharmacokinetic characteristics of these materials were determined following iodination.
The labeled rt-PA was always coinjected with 1 mg/kg of unmodified rt-PA. The rt-PA with high mannose oligosaccharide structures at all glycosylation sites, produced in the CHO 15B cell line, was also included in this experiment.

[3] = rabbits; cited from earlier work
[4] = humans; cited from earlier work
rat liver hepatocytes = conditions: in vitro; cited from earlier work
[5] = clinical trials; cited from earlier work
liver = conditions: in vivo; cited from earlier work
clot = assay: In vitro clot lysis assay (Collen et al.), fibrinolytic activity; assay type: biochemical
From the text: After reduction and carboxymethylation, 34.2 nmoles (expected number is 35) of carboxymethyl cysteine per nmole of rt-PA were recovered in the periodate-treated sample. […] However, with reduction and carboxymethylation,methionine recoveries increased to 3.3 and 2.8 nmoles for the periodate-treated and untreated materials respectively. […] There was no significant difference in recovery of the other amino acids between the periodate-treated and untreated rt-PA (data not shown). […] The specific activity of the periodate-treated PA was 91% that of the control rt-PA as measured by an in vitro clot lysis assay (Collen, D. et al., J. Clin. Path, 21:705-707 [1968]).

[6] = glycosylated versus deglycosylated; cited from earlier work
[7] = effect of monosaccharides, rats; cited from earlier work
[8] = test system: rat liver endothelial cells; conditions: cited from earlier work
[9] = effect of PMSF titration of active site or coinjection of diisopropylfluorophosphate thrombin, asialoorosomucoid, macroalbumin or excess unlabeled t-PA; mice; cited from earlier work
[10] = removal of sialic acid or chemical modification of carbohydrate; cited from earlier work
[11] = immunoreactive rt-PA (IR), unlabeled, 1 mg/kg, n=4, Table 4
[12] = unlabeled rt-PA, i.v. bolus, doses control 1.0, ENDO 0.83, periodate […], n=5, Table 3
[13] = TCA precipitable radioactivity, labeled, 3.4 μCi/kg, n=4, Table 4
[14] = labeled rt-PA 10 μCi/kg, coinjected with 1 mg/kg unmodified rt-PA, Table 5

Substance: Control: wild type recombinant human tissue-type plasminogen activator (rt-PA)
- Microconstant K10 ([1]; unlabeled rt-PA): 227 min^-1 × 10^3
- Microconstant K12 ([1]; unlabeled rt-PA): 35 min^-1 × 10^3
- Microconstant K21 ([1]; unlabeled rt-PA): 42 min^-1 × 10^3
- % AUCα [1, 11]: 81.5%
- % AUCβ [1, 11]: 18.5%
- Cl [1, 11]: 5.51 mL/min/kg
- T1/2 α [1, 11]: 21.3 min
- T1/2 β [1, 11]: 3.05 min
- Vo [1, 11]: 0.03 L/kg
- Cl [1, 12]: 9.57 mL/min/kg
- T1/2 α [1, 12]: 2.61 min
- T1/2 β [1, 12]: 19.6 min
- elimination of labeled versus unlabeled rt-PA ([2]; TCA precipitable counts versus immunoreactivity): cleared more slowly
- % AUCα [2, 13]: 62.1%
- % AUCβ [2, 13]: 37.9%
- Cl [2, 13]: 3.92 mL/min/kg
- T1/2 α [2, 13]: 30.3 min
- T1/2 β [2, 13]: 3.36 min
- Vo [2, 13]: 0.0277 L/kg
- % AUCα [2, 14]: 52%
- % AUCβ [2, 14]: 48%
- Cl [2, 14]: 5.72 mL/min/kg
- T1/2 α [2, 14]: 2.55 min
- T1/2 β [2, 14]: 14.9 min
- Vo [2, 14]: 0.0315 L/kg
- alpha phase half life [3]: about 2 min
- alpha phase half life [4]: 4 min and 6 min
- binding affinity (rat liver hepatocytes): bind with high affinity to rat liver hepatocytes
- effect on fibrinogen levels in the blood [5]: minimal effects on fibrinogen levels in the blood
- thrombolytic efficacy [5]: extremely effective thrombolytic agent
- site of uptake and metabolism (liver): The liver is the most significant site of t-PA uptake and metabolism

Substance: Periodate
- elimination ([1]; FIG. 4, unlabeled): slow the elimination of rt-PA
- Microconstant K10 ([1]; unlabeled rt-PA): 63 min^-1 × 10^3
- Microconstant K12 ([1]; unlabeled rt-PA): 72 min^-1 × 10^3
- Microconstant K21 ([1]; unlabeled rt-PA): 54 min^-1 × 10^3
- Vo, difference versus control ([1]; unlabeled): no significant differences
- fold slower rate of clearance than control rt-PA ([1]; unlabeled): 2.7 fold
- t1/2 alpha, change versus control ([1]; unlabeled): significant increase
- t1/2 beta, difference versus control ([1]; unlabeled): no significant differences
- Cl [1, 12]: 3.53 mL/min/kg
- T1/2 α [1, 12]: 4.22 min
- T1/2 β [1, 12]: 37.5 min
- rate of clearance versus control ([2]; labeled): smaller rates of clearance than the control rt-PA
- relative size of alpha and beta phase ([2]; labeled): the dominant change in the elimination pattern of the Endo-H and Periodate treated rt-PA again appears to be in the relative size of the alpha and beta phase
- % AUCα [2, 14]: 32%
- % AUCβ [2, 14]: 68%
- Cl [2, 14]: 2.74 mL/min/kg
- T1/2 α [2, 14]: 3.30 min
- T1/2 β [2, 14]: 30.3 min
- Vo [2, 14]: 0.0326 L/kg
- specific activity relative to control rt-PA (clot; in vitro clot lysis assay, % of control rt-PA): 91%
- fibrinolytic activity (clot; in vitro clot lysis, versus untreated control): did not alter the activity of the rt-PA significantly

Substance: deglycosylated human tissue-type plasminogen activator: deglycosylated human tissue-type plasminogen activator (Larsen et al.)
- in vivo clearance rate [6]: not significantly different

Substance: melanoma-derived t-PA: t-PA isolated from melanoma cell line
- clearance [7]: unaffected by monosaccharides
- uptake [8]: a pathway that could be inhibited by high mannose glycoproteins
- elimination [9]: unaffected

Substance: transferrin: transferrin, serum glycoprotein, after removal of sialic acid
- half-life change [10]: no significant effect on half-life

Substance: urokinase
- half-life change [10]: extending the half-life
